Biological target: the molecule itself
Test: crystal structure; Form I crystals, P4(3)2(1)2, 3.4 Å; Tn3 resolvase mixed with site III DNA duplex in a 2:1.25 molar ratio; one dimer-site III DNA complex in the asymmetric unit; step: two subunits in the DNA-bound dimer

B1: Tn3 resolvase (wild-type, with SHHHHHH added after the natural C-terminus) (enzyme, transposon Tn3, UniProt P0ADI2 1-185, looked up)
chain: MRIFGYARVSTSQQSLDIQIRALKDAGVKANRIFTDKASGSSTDREGLDLLRMKVEEGDVILVKKLDRLGRDTADMIQLIKEFDAQGVAVRFIDDGISTDGDMGQMVVTILSAVAQAERRRILERTNEGRQEAKLKGIKFGRRRTVDRNVVLTLHQKGTGATEIAHQLSIARSTVYKILEDERAS
notes: Tn3 resolvase, wild type, encoded by the Tn3 transposon; GenBank CAA23885.1; The 7 C-terminal residues (SHHHHHH) were disordered in the crystal structure; also called WT Tn3 resolvase; source: E. coli Rosetta DE3 pLysS from plasmid pSA1121; not shown: SHHHHHH (Ser-His6), C-terminal, kept
- binding result: binds
